Earlier results on one substance are cited in article PMC9594322.

The series addresses HIF-1β PAS-B (Homo sapiens) (UniProt P27540).

Chain of HIF-1α PAS-B (Q16665 238-349): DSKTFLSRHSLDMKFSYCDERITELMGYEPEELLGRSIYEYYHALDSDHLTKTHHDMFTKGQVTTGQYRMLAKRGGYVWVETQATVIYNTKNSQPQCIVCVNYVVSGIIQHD
Chain of HIF-1β PAS-B (Homo sapiens) (P27540 356-470): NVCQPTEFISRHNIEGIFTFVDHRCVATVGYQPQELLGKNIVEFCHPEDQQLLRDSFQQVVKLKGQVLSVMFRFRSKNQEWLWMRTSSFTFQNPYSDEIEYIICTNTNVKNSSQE

By Kd is commonly meant the equilibrium constant for the complex coming apart. HIF-1α PAS-B (from UniProt Q16665): the Kd was 0.378 µM.
